Measurements reported in patent US20060216716A1, “Immunologic activity measures for t helper on-associated conditions” (priority 2003, published 2006).

How the values were obtained:
CXCL10 = details: within individual Crohn's Disease subjects; interferon-gamma activation; FIG. 4
Method: A pro-inflammatory stimulant, e.g., interferon-gamma, is added at a concentration of approximately 1000 units/cc and incubated at 37° C. […] At an appropriate time interval, e.g., 3 hours, the samples are centrifuged to allow collection of the plasma, or serum (the non-cell containing portion of the blood). […] In a standard sandwich ELISA detection, the plasma/serum is allowed to incubate with a capture antibody. Then, the sample is removed, the plate is washed multiple times and an antibody labeled with an enzyme is applied (detection antibody). Finally, and the plate is again washed repeatedly. Depending on the enzyme used for the detection antibody, a color change becomes evident over time after addition of the proper enzyme substrate, which can then be detected using specified light wavelength measurements. The light absorbance can be measured using a standard ELISA plate reader, which in turn produces a number. By comparing this number to a standard curve for CXCL10, a quantified amount of CXCL10 can be determined, or alternatively, the absorbance number itself may be used.

CXCL9 = experiment: activated CXCL9 levels (interferon-gamma and tumor necrosis factor-alpha stimulation) in Crohn's Disease subjects by medication usage; format: in vivo; details: disease active or in remission, FIG. 7
Method: (§1) Following informed consent, a heparinized whole blood sample. […] Finally, and the plate is again washed repeatedly.
In a subsequent experiment, a combination of stimulating cytokines (interferon-gamma and tumor necrosis factor-alpha) was administered to Crohn's Disease patients and the effects of medication studied.

WBC [1] = experiment: ex vivo whole blood stimulation, CXCL10 release by WBC (ELISA); format: cell-based; details: 3 hours post stimulation; subjects with Crohn's Disease or Ulcerative Colitis; FIG. 1
Text: as §1
This response also occurs in normal individuals as well.

WBC [2] = experiment: ex vivo blood stimulation, CXCL9 levels; format: cell-based
Text: as §1
The effects of different forms of activation and a combination of activating cytokines on CXCL9 levels in Crohn's Disease subjects was also studied.

azathioprine/6MP
effect of medication on activated CXCL10 levels over time (CXCL10): significant changes

S=c1nc[nH]c2nc[nH]c12 [6 MP]
effect of medication usage on activated CXCL9 levels (CXCL9): brought about a change

B1: interferon-gamma (protein, UniProt P01579 24-161, looked up)
Interferon gamma: QDPYVKEAENLKKYFNAGHSDVADNGTLFLGILKNWKEESDRKIMQSQIVSFYFKLFKNFKDDQSIQKSVETIKEDMNVKFFNSNKKKRDDFEKLTNYSVTDLNVQRKAIHELIQVMAELSPAAKTGKRKRSQMLFRG
notes: pro-inflammatory stimulant cytokine added to the blood sample
CXCL10 response following stimulation (WBC [1]): a larger spread and an increase in the measurable values
serum CXCL9 concentration levels after stimulation (WBC [2]; Crohn's Disease subjects, FIG. 6): increased
serum CXCL9 concentration levels after stimulation (WBC [2]; Ulcerative Colitis subjects, active and inactive disease, FIG. 8): increased
